Data from the nanobody polyreactivity screen of Harvey et al. (2022).

Assay: yeast display, Sf9 membrane polyspecificity reagent, FACS + sequencing; frameworks hold sequencing errors
Summary of the method: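 Using colony PCR, genes from sorted yeast display clones were amplified, then sequenced on MiSeq at 2 × 250 and filtered by CDR length. The clones had been stained with 10% biotinylated, detergent-solubilized Sf9 membrane reagent for 1 hour at 4 °C and sorted by FACS into low and high (top ~1%) gates on anti-HA and streptavidin fluorescence. Polyreactivity labels come from the gate of origin.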

| Sequence | polyreactivity (PSR sort gate) |
| --- | --- |
| QLQLVESGGGLVQAGGSLRLSCAASGSTASINAMGWYRQAPGKERELVADISTNGDSTSYADSVKGRFTISRDNAKNTVYLQMNSLKPEDTAVYYCNAVPHIYAEGTAYKYWGQGTQETVSS | low polyreactivity |
| QVQLVESGGGLGQAGGSLRLSCAASGFILRYNAMGWYRQAPGKERELVAAISYTGDRTYYADSVKGRFTISRDNAKNTVYLQMNSLKPEDTAVYYCKAGKGQRALVRIGSKLMYYWGHGTQVTVSS | high polyreactivity |
| QVQLVESGGGLVQAGGSLRLSCAASGSIFHLYLGWYRQAPRKERELVAVIKSSGDSTYYADSVKGRFTISRDNAKNTVYLQMNSMKPEDTAVYYCNARRRGPRYRYCYWGQGTQVTVSS | high polyreactivity |
| QVQLVESGGGLVQAGGSLRLSCAASGFTFWQYAMGWYRQAPGKERELVAAITSSGTSTNYADSVKGRFTISGDNAKKTVYLQMNSLKPEETAVYYCAADLGYYDLYYWGQGTQVTVSS | low polyreactivity |
| QVQLVESGGGLVQAGGSLRLSSAASGSTFGYYAMGWYRQPPGKERELVAAISSSAGTTYYADSVKGCFTISRDNAKNTVYLQMNSLKPEDTAVYYCAADAVSGREYWGQGTQVTVST | low polyreactivity |
| QVQLVESGGGLLQAGGSLRLSCAASGIIFSDYAMGRYRQAPRKERELVAAITSSGGSTYYADSVKGRFTISRDNAKNTVYLQMNSLKPEDPAVYYCAAQCYDYWYDYDYWGQGTQVTVSS | high polyreactivity |
| QVQLVESGGGLVQAGGSLRLSCAASGRIFRYYTMGWYRQAPGKERELVAAINSSCGSTYYADSVKGRFTISRDNAKNTVYLQMNSLIAEDTAVYYCNAVGYTGRYQFWRVWDVHGDYWGQGNQVTVSS | high polyreactivity |
| QVQLVESGGGLVQAGGSLRLSCAASGRIFGVYVMGWYRQAPGKERELVAAISWSGSHTYYADSVKGRFTISRDNAKNTVYLQMNSLKPEDTAVYYCNADSSPEYTGPGLDWYDYWGQGTQVTVSS | low polyreactivity |
| QVQLVESGGGLVQAGGSLRLSCAASGRIFYTNAMGWYRQAPGKERELVAVISWGGDTTYYADSVKGRFTISRDNAKNTVYLQMNSLKPEDTAVYYCNADWGPTYEIYDSWGQGTQVTVSS | low polyreactivity |
| QVQLVESGGGLVQAGGSLRLSCAASGSTLFGYAMGWYRQAPGKEREFVAAISRSGGRTYYADSVKGRFTISRDNAKNTVYLQMNSLKPEDTAVYYCATVRRRLSLTYDYWGQGTQVTVSS | high polyreactivity |
| QVQLVESAGGLVQAGGSLRLSCAASGSIFLSNAMGWYRQAPGTERALVADIDWTGGDTYYADSVKGRFTISRDNAKNTVYLQMNSLKPEDTAFYYCAADYGYRNLLTEYGYWGQGTQVTVSS | low polyreactivity |
| QVQLVESGGGLVQAGGSLRLSCAASGSTLYHNAMGWYRQAPGKERELVAAITRGGSTYYADSVKGRFTISRDNAKNTVYLQMNILKPEDTAVYYCAVAVLVYYGKYYPYKMYYWGQGTQVTVSS | high polyreactivity |
| QVQLVESGGGLVQAGGSLRLSCAASGSIFRVNDMGWYRQAPGKERELVAAISSNGDDTFYADSVKGRFTISRDNSKNTVYLQMNSLKPEDTAVYYCNAESPTYPDYFFKYTHYDYWGQGTQVTVSS | low polyreactivity |
| QVQLVESGGGLLQAGGSLRLSCAASGFTIYGYGMGWYRQAPGKERELVAGITARGSSTYYADSVKGRFTISRDNAKNTVYLQMNSLKPEDTAVYYCNSVGARVASATGMEYWGQGTQVTVSS | high polyreactivity |
| QVQLVESGGGLVQAGGSLRLSCAASGRIFFRYAMGWSRQAPGKEREFVATITWSGGRTHYADSVKGRFTISRDNAKNTVYLQMNSLKPEDTAVYYCAASYHRYAFDYWGQGTQVTGSS | high polyreactivity |
| QVQLVESGGGLVQAGGSLRLSCAASGIILGLNVMGWYRQAPGKERELVATITRRGGSTFYADSVKGRFTISRDNAKNTVYLQMNSLKPEDTAVYYCNAEQWIWHHLTVQGFDYWGQGTQVTVSS | high polyreactivity |
| RVQLVESGGGLVQAGGSLRLSCAASGSTISRYAMGWYRQAPGKERELVASISRSGTSTYYADSVKGRFTISRDNAKNTVYLQMNSLKPEDTAVYYCNKRWATSIQYRYNYWGQGTQVTVSS | high polyreactivity |
| QVQLVESGGGLVQAGGSLRLSCAASGRIFYGNVMGWYRQAPGKERELVAAITRSGGSTYYADSVKGRFTISRDYAKNTVYLQMNSLKPEDTAVYYSNDALVSRDRSYEYWGQGTQVTVSS | high polyreactivity |
| QVQLVESGGGLVQAGGSLRLSCAASGLIFYGNAMGWYRQEPGKERELVAAISWSGGNTSYADSVKGRFTISRDNAKNTVYLQMNSLKPEVTAVYYCNADSLPSVERYGYWGQGTQVTVSS | low polyreactivity |
| QVQLVESGGGLVQAGGILPLSCAASGSIFVSNAMGWSRQAPGKERELVAAISSGSTYYADSVKGRFTISRDNAKNTVYLQMNSLKPEDTAVFYCIARSLLYEFDYWGQGTQVTVSS | low polyreactivity |

| Sequence | polyreactivity (PSR sort gate) |
| --- | --- |
| QVQLVESGGGLVQAGGSLRLSCAASGSTFPQYAMGWSRQAPGKERELVAAISWSGGRTYYADSVKGRFTISRDNAKNTVYLQMNSLKPEDTAVYYCAATYPGQYGYNYWGQGTQVTVSS | high polyreactivity |
| QVQLVESGGGLVQAGGSLRLSCAASGSTFPFYAMGWYRQAPGKERELVAAITSGGSTYADSVKGRFTITRDNAKNTVYLQMNSLKPEDTSVYYCAASWPRWWRFGYWGQGTQVNVSS | low polyreactivity |
| QVQLVESGGGLVQAGGSLRLSCAASGFTLGSNVMGWYRQAPGKERELVAGISQSGGRTFYADSVKGRFTISRDNSKNTVYLQMNSLKPEDTAVYYCAARRYAVEGSKNYYWGQGTQVTVTS | low polyreactivity |
| QVQLVESGGGLVQAGGSLRLSCAASGSIFIYNAMGWYRQAPGKERELVAAINWTGGSTYYADSVKGRFTISRDNAKNTVYLQMNSMKPEDTAVYYCNALRYGSTRGYDYWGQGSQVTVSS | high polyreactivity |
| QVQLVESGGGLVQAGGSLRLSCAASGRTFRTNDMGWYRQAPGKERELVAAISRGGGSTYYADSVKGRFTISRDNAKNTVYLQMNSLKPEDTAVYYCNALRNGIAFGAMDYWGQGTQVTVSS | high polyreactivity |
| QVQLVESGGGLVQAGGSLRLSCAASGRTLNAYAMGWYRQAPGKERELVAAITGDDGSTYYADSVKGRFTISRDNAKNTVYLQMNTLKPEDTAVYYCAAVTFSYDGYDYWGQGTQVTVSS | low polyreactivity |
| QVQLVESGGGLVQAGGSLRLSCAASGRIFTYYAMGWYRQAPGKERELVAAITSGGGSTSYADSVKGRFTISRDNAKNTVYLQMNSLKPEDTAVYYCATRRPFYGHNTYYWYNYWGQGTQVTVSS | high polyreactivity |
| QVQLVESGGGLVQAGGSLRLSCAAPGSIFPRYAMGWYRQAPGKERELVAAISRSGGSTYYADSVKGRFTISRDNAKNTVSLQRNSLKPEDTAVYYCATDKVSHRRYDYWGQGTQVTVSS | high polyreactivity |
| QVQLVESGGGLVQAGGSLRLSCAASGSTFGNNAMGWYRQAPGKERELVATIDDTTVSTNYADSVKGRFTISRDNAKNSVYLQMNSLKPEDTAVYYCAADDVDGSPYDYWGQGTQVTVSS | low polyreactivity |
| QVQLVESGGGLVQAGGSLRLSCAASGSIFVRYTIVWYRQSTWKEMELVAAITSGGRTYYADSVKGRFTISRDNAKNTVYLQMNSLKPEDTAVYYSADVPHIRRYGFYYWGQGTQVTVSS | high polyreactivity |
| QVQLVESGGGLVQARGSLRLSCAASGSIFPPYAMGWYRQAPGKERELVAAINSGGSTNYADSVKGRFTISRDNAKNTVYLQMNSLKAEDTAVYYCAAEVVYPVYEYDYWGQGTQVTVSS | low polyreactivity |
| QVQLVESGGGLVQAGGSLRLSCAASGLTFTLNAMGWYRQAPGKERELVATISQDGGGTTYADSVKGRFTISRDNAKNTVYLQMNSLKPEDTAVYYCATTLPPSVWGEWSGTRYPYDYWGQGTQVTVSS | low polyreactivity |
| QVQLVESGGGLVQAGGSLRLSCAASVYGMGWYRQAPGKERELVAAISNGGTTYYADSVKGRFTISRDNAKNTVYLQMNSLKPEDTAVYYCAARSWPGGFIYYYWGQGTQVTVSS | low polyreactivity |
| QVQLVESGGGLVQAGGSLRLSCAASGSTFSANAMGWYRQAPGKERELVAAITYRGGNTYYADSVKGRFTISRDNAKNTVYLQMNSLKPEETAVYYCNRDLRVRYRRLKYGYWGQGTQVTVSS | low polyreactivity |
| QVHLVESGGGLFQAGGSLRISCAASGRIFIGNAMGWYRPAPGKERELVAAISKRGGSTYYADSVKGRFTISRDYAKNTVYLQMNSLKPEDTAVYYCNKESLYREFDYWGQGTQVTVSS | low polyreactivity |
| QVQLVESGGGLLQAGGTLRLSCAASGFIFGRYAMGWYRQAPGKERELVADISWNGGSTYYADYVKGRFTISRDNAKNTVYLQMNSLKPEDTAVYYCAADYYWASFKYPYLRPYDYWGQGTQVTVSS | high polyreactivity |
| QVQLVESGGGLVQAGGSLRLSCAASGSSFRRNAMGWYRQAPGKERELVAAITRGGGSTYYADSVKGRFTISRDNAKNTVYLQMNSLKPEDNAVYYCAAQISATRETMDYWGQGTQVTVSS | high polyreactivity |
| QVQLVESGGGLVQAGGSLRLSCAASGSIFGYNAMGWYRQAPGKERELVAAISYSGGSTYYADSVKWRFTISRDNAKNTVYLQMNSLKPEDTAVYYCNKYIRRYLIYGSWGQGTQVTVSS | high polyreactivity |
| QVQLVESGGGLVQAGGSLRLSCAASGRTLGYNAMGWYSQAPGKEMDLVAAISYGGGGTYYADSVKGRCTISRDNAKNTVYLQMNSLKPEDTAVYYCAADYWYGAGLPHGTEFDYWGQGTQVTVSS | low polyreactivity |
| QLQLVESGGGLVQAGGSLRLSCAASGNTFFPYTMGWYRQAPGKERELVAAITWSGVSTYYADSVKGRFTISRDNAKYTVDLQMNSLKPEDTAVYYCAAPSTGTYGSDYWGQGTQVTVSS | high polyreactivity |
